Reference: paper PMC8880779 (International Journal of Molecular Sciences, 2022)

What was measured:
calmodulin (CaM) = target: T1, calmodulin (CaM) (Bos taurus, UniProt P62157); assay: Kinetics of Aβ(1–42) HiLyte-Fluor555 complex formation with CaM (fluorescence increase); format: binding, human
T1 construct: Purified bovine brain CaM; purchased Sigma-Aldrich (Madrid, Spain); host or cells: bovine brain

[1] = Aggregation state of Aβ(1–42) stock solutions (photoinduced cross-linking of unmodified proteins); format: physicochemical; conditions: 2 μM stock solutions
(Ca^2+)4-CaM = conditions: read-out: dissociation constant of the Aβ:(Ca^2+)4-CaM complex; cited from earlier work
Description: These neurons are in the brain areas that are highly prone to neurodegeneration in AD. […] Considering their spatial organization in the CaM structure, we included a couple of additional hydrophobic amino acid residues as spacing groups.

[2] = tested on: CaM in cerebellar granule neurons in culture; conditions: 2 h incubation with 2 μM Aβ(1–42) oligomers; cited from earlier work
Description: These neurons are in the brain areas that are highly prone to neurodegeneration in AD. […] Therefore, CaM has a high capacity to buffer the intracellular concentrations of these highly neurotoxic Aβ peptides ...

[3] = set-up: method as in PMID 15890345, PMID 18686032, PMID 26890761, PMID 34829555; conditions: cited from earlier work

| Y0, maximum fluorescence increase in the absence of the peptide (calmodulin (CaM); 10 nM Aβ(1–42) HiLyte-Fluor555, 5 nM CaM, 1000 s after addition, hyperbolic fit R^2 = 0.966, triplicate) [%] | slope of linear least-squares fit of first-order plot (calmodulin (CaM); fit y = 9.845 − 0.00396 x (R^2 = 0.922), 10 nM Aβ(1–42) HiLyte-Fluor555, 5 nM CaM, sign of slope in the equation negative) | stoichiometry of complex (calmodulin (CaM); 10 nM CaM, 10 nM Aβ(1–42)) | increase of rate constant (calmodulin (CaM); 10 nM vs 5 nM CaM, 10 nM Aβ(1–42)) | rate constant of the kinetic process (calmodulin (CaM); 1:1 molar ratio, 10 nM CaM and 10 nM Aβ(1–42)) | Substance | maximum fluorescence change vs CaM concentration (calmodulin (CaM); 10 nM Aβ(1–42) HiLyte-Fluor555, CaM 2.5, 5 and 10 nM) | concentration of monomers [1] | predominant aggregation state ([1]; 1% NH4OH diluted with phosphate-buffered saline) | Kd ((Ca^2+)4-CaM) [nM] | binding of internalized Aβ(1–42) by CaM [2] | neurotoxicity [3] |
| --- | --- | --- | --- | --- | --- | --- | --- | --- | --- | --- | --- |
| 22 | 0.00396 | – | – | – | Aβ(1–42) HiLyte^TM-Fluor555: Human Aβ(1–42)-HiLyte™-Fluor555 obtained from AnaSpec | the maximum fluorescence change was achieved when CaM concentration increased from 2.5 to 5 nM, and it is not significantly different between 5 and 10 nM of CaM | – | – | – | – | – |
| – | – | Aβ(1–42)2:CaM2 complexes | about 4 fold | (18 ± 4)·10^−3 s^−1 | Aβ(1–42): unlabeled Aβ(1–42) synthesized and supplied by StabVida and GenicBio Limited | – | undetectable concentration of Aβ(1–42) monomers | Dimers are the predominant aggregation state | ~1 | CaM binds most of the Aβ(1–42) internalized in cerebellar granule neurons | – |
| – | – | – | – | – | Aβ(25–35): highly neurotoxic peptides derived from Aβ(1–42), like Aβ(25–35) (GSNKGAIIGLM; Amyloid-beta protein 42; UniProt P05067 696-706, looked up, fragment) | – | – | – | ~1 | – | strongly neurotoxic |
